Measured values as given in publication PMC11070986 (Nature, 2024).

Biological target: the molecule itself
Experiment: cryo-EM structure

B1: human VMAT1(ΔL1/2) (natural protein, UniProt P54219 1-525, looked up)
chain: MLRTILDAPQRLLKEGRASRQLVLVVVFVALLLDNMLFTVVVPIVPTFLYDMEFKEVNSSLHLGHAGSNCLQGTGFLEEEITRVGVLFASKAVMQLLVNPFVGPLTNRIGYHIPMFAGFVIMFLSTVMFAFSGTYTLLFVARTLQGIGSSFSSVAGLGMLASVYTDDHERGRAMGTALGGLALGLLVGAPFGSVMYEFVGKSAPFLILAFLALLDGALQLCILQPSKVSPESAKGTPLFMLLKDPYILVAAGSICFANMGVAILEPTLPIWMMQTMCSPKWQLGLAFLPASVSYLIGTNLFGVLANKMGRWLCSLIGMLVVGTSLLCVPLAHNIFGLIGPNAGLGLAIGMVDSSMMPIMGHLVDLRHTSVYGSVYAIADVAFCMGFAIGPSTGGAIVKAIGFPWLMVITGVINIVYAPLCYYLRSPPAKEEKLAILSQDCPMETRMYATQKPTKEFPLGEDSDEEPDHEE
For B1, which “stoichiometry N” value is on record?
Its value is 2.
